Assay results published in the supplement of paper PMC9112550, “Optimization of the antimicrobial peptide Bac7 by deep mutational scanning” (BMC Biology, 2022).

The sequences below were run on Escherichia coli TOP10 (assay: shrunken log2 fold change of peptide-encoding DNA abundance (4.5 h post-induction vs induction); higher = less antimicrobial activity (less host growth inhibition)). Settings: time post-induction: 4.5 h; library: site-saturation at positions 5, 18, 19, 20.
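Note: peptides expressed intracellularly from a pBAD plasmid library in pooled LB shake-flask culture, induced with 0.3% L-arabinose, DNA abundance read by NGS, three biological replicates, DESeq2 with apeglm shrinkage.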

Sequence | shrunken log2 fold change
RRIRYRPPRLPRPRPRPPTLPRP | -0.274
RRIRNRPPRLPRPRPRPQRQPRP | 0.0149
RRIRNRPPRLPRPRPRPCTDPRP | 0.233
RRIRGRPPRLPRPRPRPTEDPRP | 1.2
RRIRCRPPRLPRPRPRPWKVPRP | 0.101
RRIRERPPRLPRPRPRPDIRPRP | -0.0427
RRIRHRPPRLPRPRPRPPQYPRP | -0.154
RRIRCRPPRLPRPRPRPCCFPRP | -0.155
RRIRARPPRLPRPRPRPVAMPRP | 0.383
RRIRSRPPRLPRPRPRPRRGPRP | 0.538
RRIRNRPPRLPRPRPRPHKYPRP | -1.52
RRIRNRPPRLPRPRPRPMVVPRP | 0.00587
RRIRERPPRLPRPRPRPIVVPRP | -0.29
RRIRDRPPRLPRPRPRPARIPRP | 0.136
RRIRERPPRLPRPRPRPQALPRP | -0.378
RRIRIRPPRLPRPRPRPMQLPRP | 3.42
RRIRRRPPRLPRPRPRPNGPPRP | 0.384
RRIRHRPPRLPRPRPRPLFRPRP | 0.0546
RRIRQRPPRLPRPRPRPGSCPRP | 0.192
RRIRNRPPRLPRPRPRPTKSPRP | 0.141
RRIRLRPPRLPRPRPRPRWEPRP | 0.0629
RRIRMRPPRLPRPRPRPITYPRP | -0.0199
RRIRKRPPRLPRPRPRPYCQPRP | -0.773
RRIRFRPPRLPRPRPRPPLHPRP | 0.198
RRIRARPPRLPRPRPRPGMMPRP | 0.207

Sequence | shrunken log2 fold change
RRIRLRPPRLPRPRPRPSMHPRP | -0.489
RRIRRRPPRLPRPRPRPYAVPRP | -0.191
RRIRARPPRLPRPRPRPVPCPRP | 0.341
RRIRGRPPRLPRPRPRPDKWPRP | 0.243
RRIRHRPPRLPRPRPRPDWFPRP | -0.00508
RRIRWRPPRLPRPRPRPPNCPRP | -0.11
RRIRCRPPRLPRPRPRPSGGPRP | -0.0862
RRIRLRPPRLPRPRPRPIKHPRP | -0.821
RRIRNRPPRLPRPRPRPRFDPRP | 0.0608
RRIRARPPRLPRPRPRPTFLPRP | 0.113
RRIRGRPPRLPRPRPRPMRPPRP | 1.3
RRIRTRPPRLPRPRPRPTTYPRP | -0.441
RRIRDRPPRLPRPRPRPGLMPRP | -0.152
RRIRCRPPRLPRPRPRPNKCPRP | -0.279
RRIRIRPPRLPRPRPRPSITPRP | 0.141
RRIRTRPPRLPRPRPRPQSPPRP | -0.0309
RRIRCRPPRLPRPRPRPTGIPRP | 0.287
RRIRVRPPRLPRPRPRPSMDPRP | 2.34
RRIRFRPPRLPRPRPRPVSRPRP | -0.145
RRIRYRPPRLPRPRPRPVIYPRP | -0.0529
RRIRHRPPRLPRPRPRPRANPRP | 0.177
RRIRARPPRLPRPRPRPFVVPRP | -0.312
RRIRSRPPRLPRPRPRPQRVPRP | -0.00684
RRIRHRPPRLPRPRPRPGGNPRP | 0.00148
RRIRWRPPRLPRPRPRPICIPRP | -0.191

Sequence | shrunken log2 fold change
RRIRWRPPRLPRPRPRPPYYPRP | -0.183
RRIRVRPPRLPRPRPRPSKFPRP | -0.579
RRIRFRPPRLPRPRPRPCNDPRP | -0.122
RRIRLRPPRLPRPRPRPIPMPRP | 0.0494
RRIRSRPPRLPRPRPRPHIPPRP | -0.836
RRIRDRPPRLPRPRPRPCMAPRP | 0.203
RRIRPRPPRLPRPRPRPEMRPRP | 0.329
RRIRGRPPRLPRPRPRPCKNPRP | 0.397
RRIRSRPPRLPRPRPRPYHKPRP | -0.404
RRIRCRPPRLPRPRPRPPIGPRP | -0.079
RRIRIRPPRLPRPRPRPDEFPRP | 0.0764
RRIRLRPPRLPRPRPRPGDAPRP | -0.127
RRIRARPPRLPRPRPRPPHPPRP | 0.527
RRIRERPPRLPRPRPRPMQLPRP | 0.0995
RRIRPRPPRLPRPRPRPRILPRP | 0.0605
RRIRKRPPRLPRPRPRPDGMPRP | -0.00135
RRIRGRPPRLPRPRPRPATIPRP | 0.138
RRIRTRPPRLPRPRPRPRIEPRP | 0.453
RRIRQRPPRLPRPRPRPGFKPRP | -0.534
RRIRCRPPRLPRPRPRPFGGPRP | 0.0285
RRIRWRPPRLPRPRPRPCGSPRP | -0.0157
RRIRLRPPRLPRPRPRPENEPRP | -0.0211
RRIRGRPPRLPRPRPRPEWYPRP | 0.243
RRIRWRPPRLPRPRPRPCWLPRP | -0.119
RRIRFRPPRLPRPRPRPTNYPRP | -0.587

Sequence | shrunken log2 fold change
RRIRCRPPRLPRPRPRPCDYPRP | -0.0812
RRIRSRPPRLPRPRPRPAEYPRP | -0.0544
RRIRMRPPRLPRPRPRPWFKPRP | -0.665
RRIRNRPPRLPRPRPRPLSEPRP | 0.0166
RRIRDRPPRLPRPRPRPGLGPRP | 0.208
RRIRSRPPRLPRPRPRPKNSPRP | -0.431
RRIRCRPPRLPRPRPRPCLSPRP | -0.381
RRIRSRPPRLPRPRPRPVKGPRP | -0.0577
RRIRQRPPRLPRPRPRPHHTPRP | -0.0489
RRIRKRPPRLPRPRPRPSPGPRP | 0.26
RRIRFRPPRLPRPRPRPHDFPRP | -0.199
RRIRDRPPRLPRPRPRPTSEPRP | 0.236
RRIRRRPPRLPRPRPRPMYRPRP | 0.0278
RRIRNRPPRLPRPRPRPRWGPRP | -0.0125
RRIRHRPPRLPRPRPRPSYIPRP | -1.77
RRIRPRPPRLPRPRPRPPLYPRP | 0.217
RRIRLRPPRLPRPRPRPWGYPRP | -0.359
RRIRTRPPRLPRPRPRPDNTPRP | -0.191
RRIRHRPPRLPRPRPRPNGEPRP | 0.164
RRIRNRPPRLPRPRPRPFEIPRP | -0.0195
RRIRDRPPRLPRPRPRPVNLPRP | 0.0119
RRIRKRPPRLPRPRPRPNGTPRP | -0.0678
RRIRLRPPRLPRPRPRPAYKPRP | -0.00989
RRIRKRPPRLPRPRPRPSYMPRP | -0.0995
RRIRCRPPRLPRPRPRPYWIPRP | -1.17

Sequence | shrunken log2 fold change
RRIRERPPRLPRPRPRPNRIPRP | -0.0288
RRIRWRPPRLPRPRPRPVMEPRP | 0.0979
RRIRQRPPRLPRPRPRPQEIPRP | 0.0292
RRIRRRPPRLPRPRPRPVFGPRP | 0.329
RRIRSRPPRLPRPRPRPKMSPRP | -0.105
RRIRPRPPRLPRPRPRPCFHPRP | -0.202
RRIRSRPPRLPRPRPRPLNNPRP | -0.124
RRIRDRPPRLPRPRPRPGVRPRP | 0.502
RRIRGRPPRLPRPRPRPYRAPRP | -0.233
RRIRCRPPRLPRPRPRPWMTPRP | -0.188
RRIRLRPPRLPRPRPRPLVEPRP | 0.222
RRIRDRPPRLPRPRPRPDSMPRP | 0.00619
RRIRWRPPRLPRPRPRPWKTPRP | 0.149
RRIRSRPPRLPRPRPRPWDGPRP | -0.0512
RRIRNRPPRLPRPRPRPHTHPRP | -0.438
RRIRTRPPRLPRPRPRPMVIPRP | -0.0894
RRIRWRPPRLPRPRPRPEPKPRP | 0.393
RRIRNRPPRLPRPRPRPHHTPRP | -0.459
RRIRTRPPRLPRPRPRPYTNPRP | -0.0771
RRIRPRPPRLPRPRPRPERDPRP | 0.195
RRIRSRPPRLPRPRPRPLYQPRP | -0.339
RRIRPRPPRLPRPRPRPPYRPRP | 0.103
RRIRVRPPRLPRPRPRPEKGPRP | -0.09
RRIRLRPPRLPRPRPRPIMNPRP | -0.381
RRIRIRPPRLPRPRPRPEVEPRP | -0.0136

Sequence | shrunken log2 fold change
RRIRERPPRLPRPRPRPETSPRP | 0.122
RRIRLRPPRLPRPRPRPYQNPRP | -0.0985
RRIRKRPPRLPRPRPRPPGWPRP | 0.675
RRIRHRPPRLPRPRPRPNSWPRP | 0.254
RRIRQRPPRLPRPRPRPGMEPRP | 0.0952
RRIRSRPPRLPRPRPRPKAHPRP | 0.277
RRIRRRPPRLPRPRPRPRRGPRP | 0.788
RRIRHRPPRLPRPRPRPWPCPRP | -0.027
RRIRWRPPRLPRPRPRPIHWPRP | 0.202
RRIRLRPPRLPRPRPRPQQSPRP | -0.047
RRIRPRPPRLPRPRPRPDNYPRP | -0.496
RRIRHRPPRLPRPRPRPKIRPRP | -0.156
RRIRTRPPRLPRPRPRPNWWPRP | 0.188
RRIRGRPPRLPRPRPRPKVVPRP | 0.12
RRIRRRPPRLPRPRPRPHTFPRP | -0.108
RRIRQRPPRLPRPRPRPYTHPRP | -0.723
RRIRARPPRLPRPRPRPIKVPRP | -0.104
RRIRHRPPRLPRPRPRPGDLPRP | 0.163
RRIRHRPPRLPRPRPRPSSDPRP | -0.529
RRIRDRPPRLPRPRPRPKIWPRP | 0.127
RRIRTRPPRLPRPRPRPEDFPRP | -0.00101
RRIRARPPRLPRPRPRPMYDPRP | 0.15
RRIRTRPPRLPRPRPRPSFLPRP | -0.586
RRIRMRPPRLPRPRPRPNFKPRP | -0.0166
RRIRERPPRLPRPRPRPAATPRP | 0.222
